# Results as given in the PETadex activity labels (doi:10.1016/s0021-9258(17)37371-4).
# B1: unnamed (protein)
# chain: MRPPQCLLHTPSLASPLLLLLLWLLGGGVGAEGREDAELLVTVRGGRLRGIRLKTPGGPVSAFLGIPFAEPPMGPRRFLPPEPKQPWSGVVDATTFQSVCYQAVDTLYPGFEGTEMWNPNRELSEDCLYLNVWTPYPRPTSPTPVLVWIYGGGFYSGASSLDVYDGRFLVQAERTVLVSMNYRVGAFGFLALPGSREAPGNVGLLDQRLALQWVQENVAAFGGDPTSVTLFGESAGAASVGMHLLSPPSRGLFHRAVLQSGAPNGPWATVGMGEARRRATQLAHLVGCPPGGTGGNDTELVACLRTRPAQVLVNHEWHVLPQESVFRFSFVPVVDGDFLSDTPEALINAGDFHGLQVLVGVVKDEGSYFLVYGAPGFSKDNESLISRAEFLAGVRVGVPQVSDLAAEAVVLHYTDWLHPEDPARLREALSDVVGDHNVVCPVAQLAGRLAAQGARVYAYVFEHRASTLSWPLWMGVPHGYEIEFIFGIPLDPSRNYTAEEKIFAQRLMRYWANFARTGDPNEPRDPKAPQWPPYTAGAQQYVSLDLRPLEVRRGLRAQACAFWNRFLPKLLSATDTLDEAERQWKAEFHRWSSYMVHWKNQFDHYSKQDRCSDL
# B2: unnamed (protein)
# chain: MRPPQCLLHTPSLASPLLLLLLWLLGGGVGAEGREDAELLVTVRGGRLRGIRLKTPGGPVSAFLGIPFAEPPMGPRRFLPPEPKQPWSGVVDATTFQSVCYQYVDTLYPGFEGTEMWNPNRELSEDCLYLNVWTPYPRPTSPTPVLVWIYGGGFYSGASSLDVYDGRFLVQAERTVLVSMNYRVGAFGFLALPGSREAPGNVGLLDQRLALQWVQENVAAFGGDPTSVTLFGESAGAASVGMHLLSPPSRGLFHRAVLQSGAPNGPWATVGMGEARRRATQLAHLVGCPPGGTGGNDTELVACLRTRPAQVLVNHEWHVLPQESVFRASFVPVVDGDFLSDTPEALINAGDFHGLQVLVGVVKDEGSYFLVYGAPGFSKDNESLISRAEFLAGVRVGVPQVSDLAAEAVVLHYTDWLHPEDPARLREALSDVVGDHNVVCPVAQLAGRLAAQGARVYAYVFEHRASTLSWPLWMGVPHGYEIEFIFGIPLDPSRNYTAEEKIFAQRLMRYWANFARTGDPNEPRDPKAPQWPPYTAGAQQYVSLDLRPLEVRRGLRAQACAFWNRFLPKLLSATDTLDEAERQWKAEFHRWSSYMVHWKNQFDHYSKQDRCSDL
# B3: unnamed (protein)
# chain: MRPPQCLLHTPSLASPLLLLLLWLLGGGVGAEGREDAELLVTVRGGRLRGIRLKTPGGPVSAFLGIPFAEPPMGPRRFLPPEPKQPWSGVVDATTFQSVCYQAVDTLYPGFEGTEMWNPNRELSEDCLYLNVWTPYPRPTSPTPVLVWIYGGGFYSGASSLDVYDGRFLVQAERTVLVSMNYRVGAFGFLALPGSREAPGNVGLLDQRLALQWVQENVAAFGGDPTSVTLFGESAGAASVGMHLLSPPSRGLFHRAVLQSGAPNGPWATVGMGEARRRATQLAHLVGCPPGGTGGNDTELVACLRTRPAQVLVNHEAHVLPQESVFRFSFVPVVDGDFLSDTPEALINAGDFHGLQVLVGVVKDEGSYFLVYGAPGFSKDNESLISRAEFLAGVRVGVPQVSDLAAEAVVLHYTDWLHPEDPARLREALSDVVGDHNVVCPVAQLAGRLAAQGARVYAYVFEHRASTLSWPLWMGVPHGYEIEFIFGIPLDPSRNYTAEEKIFAQRLMRYWANFARTGDPNEPRDPKAPQWPPYTAGAQQYVSLDLRPLEVRRGLRAQACAFWNRFLPKLLSATDTLDEAERQWKAEFHRWSSYMVHWKNQFDHYSKQDRCSDL
# B4: unnamed (protein)
# chain: MRPPQCLLHTPSLASPLLLLLLWLLGGGVGAEGREDAELLVTVRGGRLRGIRLKTPGGPVSAFLGIPFAEPPMGPRRFLPPEPKQPWSGVVDATTFQSVCYQYVDTLYPGFEGTEMWNPNRELSEDCLYLNVWTPYPRPTSPTPVLVWIYGGGFYSGASSLDVYDGRFLVQAERTVLVSMNYRVGAFGFLALPGSREAPGNVGLLDQRLALQWVQENVAAFGGDPTSVTLFGESAGAASVGMHLLSPPSRGLFHRAVLQSGAPNGPWATVGMGEARRRATQLAHLVGCPPGGTGGNDTELVACLRTRPAQVLVNHEWHVLPQESVFRFSFVPVVDGDFLSDTPEALINAGDFHGLQVLVGVVKDEGSYFLVAGAPGFSKDNESLISRAEFLAGVRVGVPQVSDLAAEAVVLHYTDWLHPEDPARLREALSDVVGDHNVVCPVAQLAGRLAAQGARVYAYVFEHRASTLSWPLWMGVPHGYEIEFIFGIPLDPSRNYTAEEKIFAQRLMRYWANFARTGDPNEPRDPKAPQWPPYTAGAQQYVSLDLRPLEVRRGLRAQACAFWNRFLPKLLSATDTLDEAERQWKAEFHRWSSYMVHWKNQFDHYSKQDRCSDL
# B5: unnamed (protein)
# chain: MRPPQCLLHTPSLASPLLLLLLWLLGGGVGAEGREDAELLVTVRGGRLRGIRLKTPGGPVSAFLGIPFAEPPMGPRRFLPPEPKQPWSGVVDATTFQSVCYQYVNTLYPGFEGTEMWNPNRELSEDCLYLNVWTPYPRPTSPTPVLVWIYGGGFYSGASSLDVYDGRFLVQAERTVLVSMNYRVGAFGFLALPGSREAPGNVGLLDQRLALQWVQENVAAFGGDPTSVTLFGESAGAASVGMHLLSPPSRGLFHRAVLQSGAPNGPWATVGMGEARRRATQLAHLVGCPPGGTGGNDTELVACLRTRPAQVLVNHEWHVLPQESVFRFSFVPVVDGDFLSDTPEALINAGDFHGLQVLVGVVKDEGSYFLVYGAPGFSKDNESLISRAEFLAGVRVGVPQVSDLAAEAVVLHYTDWLHPEDPARLREALSDVVGDHNVVCPVAQLAGRLAAQGARVYAYVFEHRASTLSWPLWMGVPHGYEIEFIFGIPLDPSRNYTAEEKIFAQRLMRYWANFARTGDPNEPRDPKAPQWPPYTAGAQQYVSLDLRPLEVRRGLRAQACAFWNRFLPKLLSATDTLDEAERQWKAEFHRWSSYMVHWKNQFDHYSKQDRCSDL
# Substrate: Acetylcholine
# Conditions: pH 8; 27 °C
Protein,Km,kcat,kcat/Km
B1,130 µM,6330 s⁻¹,4.87e+07 s⁻¹ M⁻¹
B2,310 µM,2000 s⁻¹,6.45e+06 s⁻¹ M⁻¹
B3,300 µM,7000 s⁻¹,2.33e+07 s⁻¹ M⁻¹
B4,300 µM,4170 s⁻¹,1.39e+07 s⁻¹ M⁻¹
B5,600 µM,4170 s⁻¹,6.94e+06 s⁻¹ M⁻¹
